In paper doi:10.1101/235556:

Molecular target: Polyhydroxyalkanoate synthase PhaC from Aquitalea sp. USM4 (JCM 19919) (Aquitalea sp. USM4 (JCM 19919))
Assay: SEC

“Polyhydroxyalkanoate synthase PhaC from Aquitalea sp. USM4 (JCM 19919) (enzyme)” showed a stoichiometry N of 2.
